Article PMC3950679
Changes are numbered by the printed parent chain.

What was measured:
[1] = biological target: T1, Cid1 WT (Schizosaccharomyces pombe, UniProt O13833 40-377); test: EMSA
T1 sequence: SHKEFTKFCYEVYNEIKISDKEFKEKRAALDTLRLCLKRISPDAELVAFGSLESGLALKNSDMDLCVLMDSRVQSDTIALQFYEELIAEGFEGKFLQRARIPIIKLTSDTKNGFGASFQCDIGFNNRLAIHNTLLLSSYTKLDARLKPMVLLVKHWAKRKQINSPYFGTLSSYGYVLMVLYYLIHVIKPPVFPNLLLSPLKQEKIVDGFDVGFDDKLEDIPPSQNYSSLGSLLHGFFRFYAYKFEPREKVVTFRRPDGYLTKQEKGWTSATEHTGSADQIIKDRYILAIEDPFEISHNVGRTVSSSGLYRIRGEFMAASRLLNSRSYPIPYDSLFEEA

[2] = biological target: T2, Cid1 D160A (Schizosaccharomyces pombe, UniProt O13833 40-377, D160A); test: EMSA
T2 sequence: T1 sequence with D121A

B1: U15 (ssRNA)
RNA: UUUUUUUUUUUUUUU
B1 gave a Kd [1] of ~1000 nM and a Kd [2] of ~1000 nM.
